Measurements: the supplement of paper PMC7877785
± gives the uncertainty stated by the source.

Assay: self-splicing fitness, log relative to wild type (ln ratio); higher = more splicing; Tetrahymena group I intron in knt gene, E. coli kanamycin selection, DiMSum; sequences stand for … in CUCUCU…GGAGGGAAAAGUUAUCAGGCAUGCACCUGGUAGCUAGUCUUUAAACCAAUAGAUUGCAUCGGUUUAAAAGGCAAGACCGUCAAAUUGCGGGAAAGGGGUCAACAGCCGUUCAGUACCAAGUCUCAGGGGAAACUUUGAGAUGGCCUUGCAAAGGGUAUGGUAAUAAGCUGACGGACAUGGUCCUAACCACGCAGCCAAGUCCUAAGUCAACAGAUCUUCUGUUGAUAUGGAUGCAGUUCACAGACUAAAUGUCGGUCGGGGAAGAUGUAUUCUUCUCAUAAGAUAUAGUCGGACCUCUCCUUAAUGGGAGCUAGCGGAUGAAGUGAUGCAACACUGGAGCCGCUGGGAACUAAUUUGUAUGCGAAAGUAUAUUGAUUAGUUUUGGAGUACUCGUGGUCG
Procedure, shortened: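 Pooled colonies went to amplicon sequencing on an Illumina HiSeq 2500 after six replicate transformations. The plates were LB agar with 100 μg/mL carbenicillin, 50 μM IPTG and 0.2% rhamnose, with or without 25 μg/mL kanamycin, incubated overnight at 37°C or 30°C. The E. coli BL21(DE3) library had all eight P1ex-region intron nucleotides randomised, the intron placed in the knt kanamycin-resistance gene on pET-22b(+). DiMSum fitness is the error-weighted combination of replicate fold changes, kanamycin against none, normalised to wild type.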

Row | Sequence | self-splicing fitness (ln) (30 °C) | self-splicing fitness (ln) (37 °C)
1 | UGGCAGCAAUAUUACGUAGG | -0.869 ± 0.092 | -0.975 ± 0.14
2 | CAACAGCAAUAUUACGUUUU | -3.57 ± 0.11 | -2.19 ± 0.11
3 | CUUUAGCAAUAUUACGCCCU | -3.13 ± 0.38 | -3.23 ± 0.25
4 | AGCAAGCAAUAUUACGUCGC |  | -0.083 ± 0.23
5 | GUUGAGCAAUAUUACGGUCC | -2.05 ± 0.15 | -1.3 ± 0.19
6 | UAUGAGCAAUAUUACGAGCA | -2.47 ± 0.17 | -2.09 ± 0.31
7 | CUCGAGCAAUAUUACGCAGG | -3.62 ± 0.3 | -2.36 ± 0.25
8 | GAGUAGCAAUAUUACGGCAA | -1.84 ± 0.17 | -0.547 ± 0.18
9 | CGUGAGCAAUAUUACGCUUG | -2.56 ± 0.11 | -2.07 ± 0.13
10 | AAUGAGCAAUAUUACGUUGC | -4.6 ± 0.45 | -2.78 ± 0.29
11 | AAGAAGCAAUAUUACGCGGU | -3.58 ± 0.3 | -1.54 ± 0.19
12 | UUUCAGCAAUAUUACGAUCC |  | -0.887 ± 0.39
13 | CUCGAGCAAUAUUACGCUUU | -4.13 ± 0.46 | -2.31 ± 0.31
14 | GCUGAGCAAUAUUACGGUUC | -2.48 ± 0.14 | -1.69 ± 0.15
15 | UGUAAGCAAUAUUACGUCUC |  | -1.56 ± 0.23
16 | AUUCAGCAAUAUUACGCCUA | -0.46 ± 0.12 | -0.501 ± 0.13
17 | UGCCAGCAAUAUUACGCUCU | -1.42 ± 0.079 | 0.293 ± 0.098
18 | CUCCAGCAAUAUUACGUGGC | -3.82 ± 0.15 | -3.4 ± 0.24
19 | GAGCAGCAAUAUUACGACUG | -1.75 ± 0.11 | -2.01 ± 0.18
20 | AAUUAGCAAUAUUACGUUUA | -1.6 ± 0.12 | -0.975 ± 0.12
21 | ACGAAGCAAUAUUACGGCCG | -0.664 ± 0.19 | 0.746 ± 0.29
22 | GUUCAGCAAUAUUACGGUAC | -2.69 ± 0.19 | 0.0172 ± 0.14
23 | GCUAAGCAAUAUUACGGCCA | -0.635 ± 0.2 | -1.58 ± 0.2
24 | UGCGAGCAAUAUUACGAUCC |  | -2.04 ± 0.46
25 | CGACAGCAAUAUUACGUGGU | -3.79 ± 0.18 | -3.34 ± 0.17

Row | Sequence | self-splicing fitness (ln) (30 °C) | self-splicing fitness (ln) (37 °C)
26 | UGCAAGCAAUAUUACGACAU | -1.679 ± 0.013 | -0.674 ± 0.032
27 | GGUCAGCAAUAUUACGCGAU | -2.41 ± 0.18 | 
28 | CACGAGCAAUAUUACGCAAU | -4.23 ± 0.19 | -2.99 ± 0.16
29 | GCGGAGCAAUAUUACGAUCA | -2.43 ± 0.41 | -1.56 ± 0.32
30 | GCGGAGCAAUAUUACGAUCG | -0.357 ± 0.25 | -1.12 ± 0.3
31 | GAUCAGCAAUAUUACGGCAU | -0.0116 ± 0.068 | 0.0262 ± 0.092
32 | AAGAAGCAAUAUUACGACAU | -0.0917 ± 0.012 | -0.0361 ± 0.032
33 | GCACAGCAAUAUUACGAGUC | -2.62 ± 0.069 | -1.29 ± 0.065
34 | GCGGAGCAAUAUUACGCCUC | -3.43 ± 0.38 | -1.06 ± 0.36
35 | UGCAAGCAAUAUUACGCUCA | -0.11 ± 0.16 | 0.138 ± 0.2
36 | UAUGAGCAAUAUUACGGAGG | -3.2 ± 0.17 | -2.53 ± 0.29
37 | AGUGAGCAAUAUUACGGGAG | -5.04 ± 0.41 | -2.38 ± 0.14
38 | UGCGAGCAAUAUUACGAUGG | -3.43 ± 0.2 | -1.93 ± 0.17
39 | CGAAAGCAAUAUUACGGGGU | -3.65 ± 0.21 | -1.94 ± 0.18
40 | UAGCAGCAAUAUUACGCGAA | -1.54 ± 0.091 | -1.24 ± 0.12
41 | CGUCAGCAAUAUUACGGGCC | -1.25 ± 0.087 | -0.797 ± 0.11
42 | ACUGAGCAAUAUUACGGAUU | -3.91 ± 0.27 | -1.59 ± 0.16
43 | UCAGAGCAAUAUUACGGAAC | -2.43 ± 0.2 | -2.49 ± 0.26
44 | CUUAAGCAAUAUUACGUGGC |  | 0.00177 ± 0.26
45 | CCUGAGCAAUAUUACGGGAU | -3.46 ± 0.24 | -1.63 ± 0.2
46 | ACAUAGCAAUAUUACGACGU | 0.079 ± 0.081 | 0.0804 ± 0.083
47 | GCCAAGCAAUAUUACGAUUA | -2.86 ± 0.17 | -2.57 ± 0.15
48 | CGUAAGCAAUAUUACGCAUG | -1.88 ± 0.13 | -0.863 ± 0.13
49 | CCCAAGCAAUAUUACGGUGG | -3.69 ± 0.15 | -2.71 ± 0.15
